Source: PMC4310740

Tests used:
[1] = target: G-actin (rabbit muscle actin monomers) (rabbit) (UniProt P68135); experiment: fluorescence polarisation
[2] = target: Alexa 594-labeled N-WASP VCA (S430C) (UniProt O00401); experiment: fluorescence polarisation
Alexa 594-labeled N-WASP VCA (S430C), sequence (O00401 whole entry S430C): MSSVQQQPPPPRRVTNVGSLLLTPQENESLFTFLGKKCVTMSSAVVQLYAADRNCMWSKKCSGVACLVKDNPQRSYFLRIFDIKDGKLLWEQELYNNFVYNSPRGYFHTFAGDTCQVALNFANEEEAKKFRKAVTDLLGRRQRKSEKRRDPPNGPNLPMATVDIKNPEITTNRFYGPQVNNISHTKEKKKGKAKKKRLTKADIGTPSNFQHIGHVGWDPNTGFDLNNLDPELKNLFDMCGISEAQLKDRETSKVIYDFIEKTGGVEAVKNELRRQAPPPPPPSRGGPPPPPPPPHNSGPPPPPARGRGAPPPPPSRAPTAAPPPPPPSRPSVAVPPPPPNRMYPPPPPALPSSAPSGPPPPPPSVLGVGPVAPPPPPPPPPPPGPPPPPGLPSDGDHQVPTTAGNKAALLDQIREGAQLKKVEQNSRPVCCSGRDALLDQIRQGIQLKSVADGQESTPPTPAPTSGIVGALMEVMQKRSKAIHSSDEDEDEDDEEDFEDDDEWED

Row | Substance | fold reduction of affinity against wild-type WAVE1 GST-VCA [1] [fold] | Kd [2] [nM]
1 | human WAVE1 GST-VCA K507Q (from UniProt Q92558 1-559) (domain or fragment) | < 2 | –
2 | G-actin (rabbit muscle actin monomers) (from UniProt P68135 1-377) (natural protein) | – | 106
